Reference: the supplement of paper PMC10567573

B1: PDLIM4 (parent)
chain: FLDERLYCESHAKARVKPPEGYDV
B2: TCAP (parent)
chain: YQRVLPLPIFTPAKMGATKEERED

Variants of: B1
Test: protein stability index of a GFP-peptide fusion (GPS, HEK-293T) (PSI 1-6); higher = more stable
Details: c terminus: a fixed tail appended
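Also: lentivirally expressed fusions sorted by FACS into six bins by GFP to DsRed ratio, PSI derived from sequencing read proportions per bin multiplied by bin number.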

Protein stability index: each site, then its substitutions
E20: Y 2.28; M 2.03; L 1.1; G 2.67; Q 3.09; P 3.31; T 2.26; N 2.28; R 2.7; A 2.53; S 1.4; D 1.74; H 2.82; V 3; I 2.65
P19: L 2.26; R 2.65; K 2.31; D 2.15; H 1.72; Y 1.43; I 1.86; F 1.93; M 1.77; W 2.75; T 2.29; G 2.01; C 2.26; N 1.21; E 1.05; S 1.11
G21: N 2.4; P 1.8; K 1.63; I 2.25; V 2.34; M 2.4; Y 2.09; D 2.94; H 1.59; C 1.89; A 1.83; L 1.77; W 1.49; Q 2.4; T 2.14; S 1.69; E 2.62; F 1.72
Y22: G 2.68; W 1.28; R 2.71; E 2.43; F 1.43; P 3.32; T 2.29; A 1.32; Q 2.55; N 2.65; S 1.04; C 2.75; D 1.53; K 2.46; L 1.15; M 1.37; I 3
P18: D 1.36; Y 2.46; R 2.41; V 1.96; G 1.75; A 2.82; S 2.52; Q 2.38; F 2.16; M 1.1; I 1.01; T 1.71; N 1.54; E 1.75; H 1.69
V24: W 1.91; S 2.82; I 2.47; Q 1.11; R 1.99; G 1.51; L 1.03; Y 1.6; N 2.32; H 1.63; E 1.6; A 2.09; P 2.53; D 1.33; M 2.12; C 1.71; T 1.53
D23: A 1.48; N 2.3; T 2.03; P 2.3; F 1.73; H 3.11; W 1.81; G 1.14; S 2.85; I 1.81; Y 2.45; K 2.53; Q 2.23; C 1.65
K17: R 1.87; S 1.48; P 2.25; Y 1.66; M 2.53; N 1.87; Q 1.86; V 2.62

Variants of: B2
Test: as above
Details: c terminus: a fixed tail appended

Protein stability index of substitutions, site by site:
Q2: E 3.53; M 2.54; L 2.58; I 2.08; T 1.89; V 1.99; A 1.92; F 3.21; K 4.35; Y 2.93; W 2.59; D 3.35; G 1.41; S 1.87; N 2.35; H 2.07; C 1.99; P 1.55; R 3.9
R3: E 2.03; F 2.63; C 3.12; H 1.88; D 2.03; G 3; I 1.73; K 2.5; A 2.15
Y1: N 5.03; D 5.35; I 3.9; R 4.53; F 2.09; T 4.79; A 5.43; G 4.97; S 5.4; Q 5.25; M 4.64; E 5.33; V 4.33; L 4.21; W 2.93; H 4.68; C 4.53; P 5.44; K 5.06
